Experiment [1] deals with T1, cynomolgus CD16 (cynomolgus, UniProt Q8SPW2 17-208, limits assumed).
T1 construct: also called Cyno CD16; cynomolgus FcγRIII
Briefly: SPR, average. In general terms: In SPR one partner is held on a chip, and binding of the other changes the refractive index at the surface.

The target of the next experiment is T2, human CD32a R131 (human, UniProt P12318 36-218, limits assumed).
T2 construct: also called FcγRIIa R131
T2 sequence (looked up): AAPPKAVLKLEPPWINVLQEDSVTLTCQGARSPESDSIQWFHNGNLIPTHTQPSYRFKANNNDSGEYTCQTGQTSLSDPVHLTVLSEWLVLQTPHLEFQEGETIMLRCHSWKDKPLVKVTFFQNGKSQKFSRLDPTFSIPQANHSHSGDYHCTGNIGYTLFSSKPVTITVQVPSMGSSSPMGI
Briefly: SPR, steady state.

The target of a further experiment is T3, human CD32b (human, UniProt P31994 46-217, limits assumed).
T3 construct: also called FcγRIIb
T3 sequence (looked up): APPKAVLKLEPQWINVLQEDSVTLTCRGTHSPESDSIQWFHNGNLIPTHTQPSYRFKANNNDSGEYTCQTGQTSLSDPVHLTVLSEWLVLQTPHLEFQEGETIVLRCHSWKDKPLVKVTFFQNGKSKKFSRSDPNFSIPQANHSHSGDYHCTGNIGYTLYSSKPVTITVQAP
Kind of experiment: SPR, steady state.

In experiment [2] the target is T4, cynomolgus NKG2D (recombinant mFc-tagged dimer) (cynomolgus, UniProt P61252 78-216).
T4 construct: also called cyno NKG2D
T4 sequence (looked up): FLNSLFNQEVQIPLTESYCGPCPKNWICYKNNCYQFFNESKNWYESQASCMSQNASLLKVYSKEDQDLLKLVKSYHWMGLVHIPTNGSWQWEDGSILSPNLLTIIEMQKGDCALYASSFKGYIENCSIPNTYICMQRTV
Kind of experiment: SPR, steady state fit. The source says:
NKG2D is a native dimer, therefore recombinant mFc-tagged NKG2D dimer was used for this experiment. Two different fits were utilized to obtain the equilibrium affinity data: steady state affinity fit and kinetic fit.

The target in experiment [3] is T1, cynomolgus CD16. Briefly: SPR, kinetic fit, average.
A further experiment deals with T5, human CD16b (human, UniProt O75015 17-200, limits assumed).
T5 construct: also called FcγRIIIb
Kind of experiment: SPR, steady state, average.

Experiment [4] has as its target T6, cynomolgus monkey BAFF-R expressed on cells (cynomolgus monkey).
T6 construct: whole, on cells; also called cBAFF-R; cynoBAFF-R
Kind of experiment: flow cytometry, CHO-cBAFF-R cells.

The target in another experiment is human FcRn (human, UniProt P55899 24-297; P61769 21-119). Briefly: SPR, pH 6.0, steady state, average; pH 6.0; average of four replicates.

From US20240360223A1 (DRAGONFLY THERAPEUTICS, published 2024) come the findings set out here.

Values joined by “and” are separate entries in the source; they are usually repeats but may differ in a detail not shown here. Equal entries are not always repeated.

T1 sequence (Q8SPW2 17-208 limits assumed): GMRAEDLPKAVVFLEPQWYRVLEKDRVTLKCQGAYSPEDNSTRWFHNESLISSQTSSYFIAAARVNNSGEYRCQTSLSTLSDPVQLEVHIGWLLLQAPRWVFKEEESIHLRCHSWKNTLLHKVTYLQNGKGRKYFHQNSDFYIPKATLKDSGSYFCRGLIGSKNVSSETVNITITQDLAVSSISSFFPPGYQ
T5 sequence (O75015 17-200 limits assumed): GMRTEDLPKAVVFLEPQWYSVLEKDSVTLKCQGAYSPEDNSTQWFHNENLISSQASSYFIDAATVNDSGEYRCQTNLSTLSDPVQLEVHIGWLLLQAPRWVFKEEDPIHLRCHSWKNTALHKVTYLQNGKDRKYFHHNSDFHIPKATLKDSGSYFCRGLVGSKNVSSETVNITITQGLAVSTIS
human FcRn, sequence (P55899 24-297 limits assumed, chain 1 of 2): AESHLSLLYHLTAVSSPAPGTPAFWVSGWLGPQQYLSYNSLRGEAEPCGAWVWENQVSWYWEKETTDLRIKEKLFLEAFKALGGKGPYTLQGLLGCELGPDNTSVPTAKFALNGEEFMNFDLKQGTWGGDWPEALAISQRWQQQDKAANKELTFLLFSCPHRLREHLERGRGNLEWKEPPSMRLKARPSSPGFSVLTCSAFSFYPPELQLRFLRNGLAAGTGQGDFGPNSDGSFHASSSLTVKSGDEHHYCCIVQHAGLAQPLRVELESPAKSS
human FcRn, sequence (P61769 21-119 limits assumed, chain 2 of 2): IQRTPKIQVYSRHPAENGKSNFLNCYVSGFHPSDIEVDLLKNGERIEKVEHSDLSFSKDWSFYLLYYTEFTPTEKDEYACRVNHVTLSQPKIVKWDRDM

B1: AB1424/AB1612 F3′ TriNKET (bispecific antibody, human IgG1, kappa)
chain: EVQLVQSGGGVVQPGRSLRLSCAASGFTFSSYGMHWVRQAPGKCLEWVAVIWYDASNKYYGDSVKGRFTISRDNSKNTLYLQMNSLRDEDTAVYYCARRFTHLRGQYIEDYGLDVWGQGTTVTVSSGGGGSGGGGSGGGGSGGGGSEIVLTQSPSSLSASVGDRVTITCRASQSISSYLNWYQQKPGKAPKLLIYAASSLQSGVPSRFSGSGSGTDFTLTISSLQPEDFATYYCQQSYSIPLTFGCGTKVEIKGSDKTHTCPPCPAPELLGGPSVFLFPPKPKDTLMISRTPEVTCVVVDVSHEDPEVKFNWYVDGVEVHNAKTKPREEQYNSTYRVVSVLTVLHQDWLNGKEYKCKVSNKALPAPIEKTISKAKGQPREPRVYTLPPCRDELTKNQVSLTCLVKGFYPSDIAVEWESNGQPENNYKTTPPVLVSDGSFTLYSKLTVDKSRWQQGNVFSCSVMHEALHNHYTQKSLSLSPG
heavy: EVQLVESGGGLVKPGGSLRLSCAASGFTFSSYSMNWVRQAPGKGLEWVSSISSSSSYIYYADSVKGRFTISRDNAKNSLYLQMNSLRAEDTAVYYCARGAPIGAAAGWFDPWGQGTLVTVSSASTKGPSVFPLAPSSKSTSGGTAALGCLVKDYFPEPVTVSWNSGALTSGVHTFPAVLQSSGLYSLSSVVTVPSSSLGTQTYICNVNHKPSNTKVDKKVEPKSCDKTHTCPPCPAPELLGGPSVFLFPPKPKDTLMISRTPEVTCVVVDVSHEDPEVKFNWYVDGVEVHNAKTKPREEQYNSTYRVVSVLTVLHQDWLNGKEYKCKVSNKALPAPIEKTISKAKGQPREPQVCTLPPSRDELTENQVSLTCLVKGFYPSDIAVEWESNGQPENNYKTTPPVLDSDGSFFLYSWLTVDKSRWQQGNVFSCSVMHEALHNHYTQKSLSLSPG
light: DIQMTQSPSSVSASVGDRVTITCRASQGISSWLAWYQQKPGKAPKLLIYAASSLQSGVPSRFSGSGSGTDFTLTISSLQPEDFATYYCQQGVSFPRTFGGGTKVEIKRTVAAPSVFIFPPSDEQLKSGTASVVCLLNNFYPREAKVQWKVDNALQSGNSQESVTEQDSKDSTYSLSSTLTLSKADYEKHKVYACEVTHQGLSSPVTKSFNRGEC
notes: Chain S: anti-BAFF-R scFv-CH2-CH3; chain H: anti-NKG2D VH-CH1-CH2-CH3; chain L: anti-NKG2D VL-CL; also called AB1612-002
In the case of B1, the Kd with cynomolgus CD16 [1] is 0.271 µM; with human CD32a R131 it was 1.5 µM and 1.3 µM and 1.2 µM; with human CD32b, 5.9 µM and 5.5 µM and 5.8 µM and 6.3 µM; in experiment [2], 0.501 µM and 0.516 µM and 0.535 µM and 0.53 µM; with cynomolgus CD16 [3], 0.271 µM; in the experiment with human CD16b, 6.9 µM. Binding with human FcRn was characterised by a dissociation constant (Kd) of 1 µM. This molecule gave a koff with cynomolgus CD16 [1] of 0.021 s⁻¹. For the same molecule, the kon with cynomolgus CD16 [1] is 76000 M⁻¹ s⁻¹. Further, the concentration for a half-maximal effect (EC50) in experiment [4] amounted to 0.00096 µM. For the same molecule, the “Max FOB” value in experiment [4] was found to be 67 fold over background.

As a reminder, the Kd is the concentration at which binding is half-saturated. As usually defined, the koff is the first-order rate constant of dissociation. A word on the kon: it is a measure of how fast the partners come together. As a reminder, the EC50 is the concentration needed to bring the measured effect to its halfway point.
